Experimental data taken from patent publication US20020106347A1, “Cytokines and their use in treatment and/or prophylaxis of breast cancer” (priority 1995, published 2002).

Experiments:
Type in all cases: cell-based, human
MCF-7 cells [1] = test: Proliferation of MCF-7 cells in monolayer (liquid) culture, viable cell count; conditions: for mean inhibition of cell proliferation: MCF-7, 7 days exposure, LIF 1000 U/ml, IL-6 100 ng/ml, OSM 10 ng/ml, IL-11 100 ng/ml, vs untreated control; for effect on cell proliferation (in words): MCF-7 / MCF-7M, up to 1 week culture
Method: FIGS. 2A, B and C are graphical representations of MCF-7M cells in liquid culture. 10^4 MCF-7M cells were cultured in 500 μl RPMI/10% bovine calf serum (BCS) (v/v) containing the indicated concentration of each of the growth factors (OSM or LIF). After 7 days culture viable cells were counted using a hemacytometer. Cell numbers reported here are the result of one experiment, each performed in triplicate.
FIG. 7 is a graphical representation showing inhibition of proliferation of MCF-7 cells by Oncostatin M (OSM). 10^4 MCF-7 cells were cultured in 500 μl RPMI/10% (v/v) BCS with the indicated concentrations of OSM. At 2, 4 and 6 days, viable cells were counted using a hemacytometer. Results are from 3 experiments, each performed in triplicate.
FIG. 8 is a graphical representation showing that MCF-7 cells are inhibited in a dose-dependent fashion by Oncostatin M (OSM). 10^4 MCF-7 cells were cultured in 500 μl RPMI/10% (v/v) BCS with the indicated concentrations of OSM. After 7 days viable cells were counted, and cell number expressed as a percentage of the corresponding untreated control value.
(§1) FIG. 16 is a graphical representation showing inhibition of MCF-7 cells after 7 days in suspension culture. 10^4MCF-7 cells were cultured in 500 μl RPMI/10% (v/v) BCS with the indicated growth factor. After 7 days viable cells were counted using a hemacytometer. Results are from 9 experiments, each performed in triplicate.
(§2) Proliferation of the cell lines was measured in monolayer culture in 24 well Costar cluster plates. Cells were plated at an initial density of 10 000 cells/ml and cultured in 500 μl RPMI-1640 supplemented with 10% (v/v) (v/v) BCS and with each growth factor as indicated (LIF, 1000 U/ml; IL-6, 100 ng/ml; OSM, 10 ng/ml; CNTF, 10 ng/ml; IL-11, 100 ng/ml). These concentrations are maximally active in other systems (Nandurkar et al., 1996; Hilton et al., 1994; Zhang et al., 1994; Tanigawa et al., 1995). After 7 or 10 days at 37° C. in a fully humidified atmosphere containing 10% (v/v) CO2 in air, cells were trypsinised and counted using a haemocytometer and an inverted microscope. Cell viability was assessed using eosin exclusion. Results were expressed as a percentage of the corresponding untreated control value for that experiment.

MCF-7 cells [2] = test: Clonogenic assay in agar after monolayer culture; conditions: MCF-7, 7 days monolayer then 14 days agar
Method: FIG. 3 is a graphical representation showing clonogenicity of MCF-7M cells. Following suspension culture MCF-7M cell viability was measured by agar culture. Cells were plated in agar with the indicated concentrations of each of the growth factors. After 14 days culture colonies of cells were counted. Cell numbers reported here are the results of 3 experiments, each performed in triplicate, and are expressed according to the number of cells that went into suspension culture.
FIG. 17 is a graphical representation showing clonogenicity of MCF-7 cells after 1 week in suspension culture. Following suspension culture clonogenicity of MCF-7 cells was assayed in agar culture. Cells were plated in agar with the indicated growth factor and maintained at 37° C0 in a humidified incubator with 5% CO2 in air. After 14 days colonies of cells were counted. Results are from 9 experiments using IL-6, LIF and OSM, and 5 experiments using CNTF and IL-11. Each experiment was performed in triplicate, and colony numbers are expressed as a percentage of untreated controls.
Clonogenic potential of cells following monolayer culture was assessed in a semi-solid culture medium. Cells were cultured in triplicate in 35 mm Petri dishes containing 1 ml Iscove's modified Dulbecco's medium (IMDM) supplemented with 25% (v/v) (v/v) BCS, 0.3% (w/v) agar with final concentration of growth factor as outlined above, and with 200 cells per ml for control cultures Cultures were maintained at 37° C. in a humidified incubator with 5% (v/v) CO2 in air. After 14 days, colonies were enumerated using a dissecting microscope. A colony was defined as a clone of greater than 40 cells. All cultures were performed in triplicate.

MCF-7 cells [3] = test: Cell morphology after exposure to growth factor; conditions: MCF-7 / MCF-7M, 6-14 days in growth factor
Source text: FIG. 4 is a photographic representation showing morphology of growth factor stimulated MCF-7M cells. Following 1 week in suspension culture containing the various growth factors, MCF-7M cells were cytospun onto slides and subsequently stained with Giemsa.
FIG. 11 is a photographic representation showing cell morphology after exposure to OSM. MCF-7 cells from control cultures and appears of cells after 7 days in OSM. A) Control cells, 10× magnification. B) OSM treated cells, 10× magnification. C) OSM treated cells, 40× magnification. D) OSM treated cells, 100× magnification.
FIG. 15 is a photographic representation showing cell morphology after exposure to OSM. MCF-7 cells from control cultures (Panel A) and appearance of cells after culture for 14 days in OSM (10 ng/ml) (Panel B). MDA-MB-231 cells from control cultures (Panel C) and appearance of cells after culture for 7 days in OSM (Panel D).

[4] = tested on: four breast cancer cell lines; test: Proliferation of four breast cancer cell lines in monolayer culture (summary)
Method: as §2
Experiments were performed to determine whether these morphological changes were associated with alterations in cell growth. The proliferation of four breast cancer cell lines was examined in monolayer cultures containing either IL-6, LIF, OSM, CNTF or IL-11.

MDA-MB-231 cells = test: Proliferation of MDA-MB-231 cells in culture, viable cell count; conditions: MDA-MB-231
Method: as §1, with “19” for “16”, “MDA-MB-231” for “inhibition of MCF-7”, “10^4MDA-MB-231” for “10^4MCF-7”, “8” for “9”
as §2

BT-549 cells = test: Proliferation of BT-549 cells in culture, viable cell count
Method: FIGS 5A and B are graphical representations of BT-549 cells in liquid culture. 10^4 BT-549 cells were cultured in 500 μl RPMI/10% (v/v) BCS containing the relevant concentration of each of the growth factors (OSM, IL-11 and IL-6). After 10 days, culture viable cells were counted using a hemacytometer. Cell numbers reported here in the two graphs are the results of 1 experiment performed in triplicate.
FIG. 18 is a graphical representation showing BT-549 cells after 10 days in suspension culture. 10^4BT-549 cells were cultured in 500 μl RPMI/10% (v/v) BCS with the indicated growth factor. After 10 days culture viable cells were counted using a hemacytometer. Results are from 6 experiments, each performed in triplicate.
as §2

Molecule	mean inhibition of cell proliferation (MCF-7 cells [1]) [%]	effect on cell proliferation (in words) (MCF-7 cells [1])	effect on colony formation / clonogenic potential (in words) (MCF-7 cells [2])	cell morphology (in words) (MCF-7 cells [3])	cell lines with significant inhibition of cellular proliferation [4]	effect on cellular proliferation (in words) (MDA-MB-231 cells)	effect on cell proliferation (in words) (BT-549 cells; BT-549)	mean growth inhibition (BT-549 cells; BT-549, 7 days) [%]	growth inhibition, up to (maximum observed) (BT-549 cells; BT-549, 10 days)	mean growth inhibition (BT-549 cells; BT-549, 10 days) [%]
interleukin-6 [IL-6]	23	did not appear to be able to induce inhibition	significant reduction of colony formation	morphologically similar to the control	¼					
ciliary neurotrophic factor (protein, UniProt P26441 1-200, looked up, human CNTF purchased from AMRAD Operations Ltd; cytokine) Ciliary neurotrophic factor: MAFTEHSPLTPHRRDLCSRSIWLARKIRSDLTALTESYVKHQGLNKNINLDSADGMPVASTDQWSELTEAERLQENLQAYRTFHVLLARLLEDQQVHFTPTEGDFHQAIHTLLLQVAAFAYQIEELMILLEYKIPRNEADGMPINVGDGGLFEKKLWGLKVLQELSQWTVRSIHDLRFISSHQTGIPARGSHYIANNKKM		no effect on cellular proliferation	no effect on clonogenic potential			did not respond				
interleukin-11 (protein, UniProt P20809 22-199, looked up, human IL-11 purchased from Pepro Tech; cytokine) Interleukin-11: PGPPPGPPRVSPDPRAELDSTVLLTRSLLADTRQLAAQLRDKFPADGDHNLDSLPTLAMSAGALGALQLPGVLTRLRADLLSYLRHVQWLRRAGGSSLKTLEPELGTLQARLDRLLRRLQLLMSRLALPQPPPDPPAPPLAPPSSAWGGIRAAHAILGGLHLTLDWAVRGLLLLKTRL	27		did not have detectable effect on subsequent clonogenicity		2/4		inhibited	30	up to 63%	56
